Reference: publication PMC4241754

Target: WlbA from Thermus thermophilus (Thermus thermophilus)
Assay: crystal structure

- stoichiometry N: 4
Substance: WlbA from Thermus thermophilus (enzyme)
